Reference: patent US20190218296A1 (APEXIGEN, published 2019)

Columns and labels:
[1] = target: T1, recombinant human PD-L1 (human, UniProt Q9NZQ7 19-238, limits assumed); assay: competition ELISA: PD-L1 coated, serial dilutions of the antibody, then biotinylated Atezolizumab at 1 µg/ml, streptavidin-HRP, OD 650 nm
T1 construct: also called PD-L1 protein

[2] = target: mouse PD-L1 (mouse, UniProt Q9EP73 19-239, limits assumed); assay: assay not described
[3] = target: T1, recombinant human PD-L1; assay: ELISA on human PD-L1, OD 650 nm
[4] = target: T2, human PD-L1 on cells (human, UniProt Q9NZQ7 19-290); assay: flow cytometry on HEK PD-L1 cells, MFI
T2 construct: whole, on cells; also called HEK-PD-L1 cells; PD-L1-expressing HEK 293 cells

[5] = target: T2, human PD-L1 on cells; assay: flow cytometry on activated CD4 T cells, MFI
[6] = target: T2, human PD-L1 on cells; assay: flow cytometry on HEK-PD-L1 cells; PE anti-human Fc, MFI
[7] = target: T2, human PD-L1 on cells; assay: flow cytometry on monocyte-derived dendritic cells, MFI
[8] = target: T2, human PD-L1 on cells; assay: flow cytometry on HEK PD-L1 cells, saturation fit on a linear axis
[9] = target: T2, human PD-L1 on cells; assay: flow cytometry on monocyte-derived dendritic cells; PE anti-human Fc, MFI
Method: The chimeric PD-L1 antibodies were further assessed for their ability to bind to human myeloid-derived dendritic cells. CD14 monocytes were isolated from PBMC using directly conjugated magnetic beads (Miltenyi) and cultured for 7 days in the presence of GM-CSF (100 ng/ml) and IL-4 (50 ng/ml) (Peprotech) to generate myeloid dendritic cells (mDC). mDC were added to 96-well plates (100,000 cells/well) and serial dilution of anti-PD-L1 antibodies or IgG1 isotype control antibody was added in duplicates and plates were incubated for 30 min on ice. After washing, a PE-conjugated donkey anti-human Fc specific antibody (Jackson Immunoresearch, 1:200 dilution) was added and plates were further incubated for 15 minutes on ice. After washing, cells were analyzed using a MACS quant flow cytometer.

[10] = target: T2, human PD-L1 on cells; assay: flow cytometry on activated CD4 T cells, saturation fit on a linear axis
[11] = target: T2, human PD-L1 on cells; assay: flow cytometry on human PD-L1 transfected HEK 293 cells; PE anti-human Fc, MFI
Method: Stable human PD-L1 transfected HEK 293 cells (Crown Bio, San Diego, Calif.) were added to 96-well plates (100,000 cells/well) and serial dilution of anti-PD-L1 antibodies or IgG1 isotype control antibody was added in duplicates and plates were incubated for 30 minutes on ice. After washing, a PE-conjugated donkey anti-human Fc specific antibody (Jackson Immunoresearch, West Grove, Pa. 1:200 dilution) was added and plates were further incubated for 15 minutes on ice. After washing, cells were analyzed using a MACS quant flow cytometer.

[12] = target: T2, human PD-L1 on cells; assay: flow cytometry on monocyte-derived dendritic cells, saturation fit on a linear axis
[13] = target: T3, recombinant cynomolgus monkey PD-L1 (cynomolgus monkey, UniProt G7PSE7 19-238); assay: direct ELISA on plate-coated recombinant cynomolgus monkey PD-L1; anti-human Fc-HRP, TMB, OD 650 nm
T3 construct: also called cynomolgus macaque PD-L1
Method: To assess specificity of the selected clones, a direct ELISA for human and cynomolgus monkey PD-L1 was performed. ELISA plates were coated with recombinant human or cynomolgus monkey PD-L1. […] Serial dilutions of chimeric anti-PD-L1 antibodies were added, and a secondary HRP-conjugated, anti-human Fc-specific antibody was added. After washing, TMB substrate was added and plates were read at OD 650 nm.

[14] = target: T2, human PD-L1 on cells; assay: flow cytometry on HEK-PD-L1 cells, saturation fit on a linear axis; column head prints only Kd, unit taken from the axis Ab (nM)
[15] = target: T4, human PD-L1-his (Sino Biologics) (human, UniProt Q9NZQ7 19-238); assay: competition ELISA: human PD-L1-his coated at 1 µg/ml, antibody dilutions, then human PD-1-mouse-Fc at 1 µg/ml, anti-mouse IgG-HRP, OD 650 nm
T4 construct: Bought from Sino Biologics; not shown: his tag
Method: Plates were coated with 100 μl of 1 μg/ml human PD-L1-his (Sino Biologics, Beijing, China) in carbonate-bicarbonate buffer overnight. After washing, plates were blocked with PBS 0.05% Tween-20 for 1 hour, and serial dilutions of anti-PD-L1 human chimeric antibody or IgG1 isotype control antibody was added. […] After washing, goat anti-mouse IgG (H+L)-HRP antibody (Jackson ImmunoResearch West Grove, Pa.) and plates were further incubated for 1 hour. After washing, TMB substrate (SurModics, Eden Prairie, Minn.) was added. The reaction was stopped using stop solution (SurModics) and plates were read at OD=650 nanometer.

[16] = target: T2, human PD-L1 on cells; assay: flow cytometry on CD4 T cells activated with anti-CD3; MFI; column head prints only EC50, unit taken from the axis Antibody Concentration (nM)

T2 sequence (Q9NZQ7 19-290): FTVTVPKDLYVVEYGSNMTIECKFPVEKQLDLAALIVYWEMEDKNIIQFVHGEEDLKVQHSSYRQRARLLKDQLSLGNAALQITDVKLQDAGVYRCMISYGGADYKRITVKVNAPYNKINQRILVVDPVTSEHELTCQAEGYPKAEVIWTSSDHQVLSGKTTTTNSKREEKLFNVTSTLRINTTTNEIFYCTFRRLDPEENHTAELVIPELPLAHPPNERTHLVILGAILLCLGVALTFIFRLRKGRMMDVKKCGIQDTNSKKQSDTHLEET
T1 sequence (Q9NZQ7 19-238 limits assumed): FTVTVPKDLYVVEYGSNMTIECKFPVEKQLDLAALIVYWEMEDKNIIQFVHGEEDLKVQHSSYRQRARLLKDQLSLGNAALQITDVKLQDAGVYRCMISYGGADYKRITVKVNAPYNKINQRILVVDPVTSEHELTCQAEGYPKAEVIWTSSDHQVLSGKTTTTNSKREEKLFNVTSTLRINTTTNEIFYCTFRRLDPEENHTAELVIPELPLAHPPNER
T4 sequence (Q9NZQ7 19-238 limits assumed): as above
Sequence of mouse PD-L1 (Q9EP73 19-239 limits assumed): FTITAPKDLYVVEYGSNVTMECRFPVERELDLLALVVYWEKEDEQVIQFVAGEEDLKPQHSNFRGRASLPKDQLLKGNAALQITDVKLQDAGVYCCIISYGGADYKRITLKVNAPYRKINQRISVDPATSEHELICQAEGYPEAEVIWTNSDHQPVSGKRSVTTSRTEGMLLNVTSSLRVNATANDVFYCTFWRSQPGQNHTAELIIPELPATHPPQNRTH
T3 sequence (G7PSE7 entry or part of it limits assumed): as the sequence (Q9NZQ7 19-238 limits assumed) above, with A33T, A34S, S62N, R68Q, Q82R, F173L, T185A, T192I, H215L counted along it

Binder	binding result [1]	binding result [2]	EC50 [3]	EC50 [4]	EC50 [5]	EC50 (read off the curve) [6]	EC50 [7]	Kd [8]	EC50 [9]	Kd [10]	EC50 [11]	Kd [12]	EC50 (read off the curve) [13]	Kd [14]	IC50 (read off the curve) [15]	EC50 [16]
chimeric anti-PD-L1 antibody 11B11 (antibody, human IgG1, V domains shown) VH: QSVEESGGRLVTPGGTLTLTCTASGFSLSNYTMAWVRQAAGKGLEWIGYINTGGSPYYASWAKGRFTISRSSTTVDLKMTSLTTEDTATYFCARNVDGAWNYLNLWGPGTLVTVSS VL: AYDMTQTPASVEVVVGGTVTIKCQASETINTYLSWYQQKPGQRPRLLIYAASNLASGVPSRFSGSGSGTEFTLTISGVQCADAATYYCQQGINSNVGNTFGGGTEVVVK	binds															
chimeric anti-PD-L1 antibody 9A9 (antibody, human IgG1, V domains shown, also called c9A9; chimeric 9A9) VH: QSVEESGGRLVTPGTPLTLTCTVSGIDLSGYWMSWVRQAPGKGLEYIGIVDNDGSAYYASWVNGRFTISKTSTTVDLKITSPTTEDTATYFCARQSGDWTFDLWGPGTLVTVSS VL: DVVMTQTPASVSEPVGGTVTIKCQASQSIGRWLSWYQQKPGQPPKLLIYQASKLASGVPSRFSGSGSGTEFTLTISDLECADAATYYCQNNYDIIAYGNAFGGGTEVVVK		no binding	7.13 ng/mL	0.27 nM	0.019 nM	~0.4 nM	1.66 nM	0.16 nM	0.4 nM	0.015 nM	0.17 nM	0.79 nM	~4 ng/mL	0.3 nM	~20 ng/mL	0.68 nM
